Publication doi:10.1101/2020.09.19.304535

Target: GmPUB13(252-630), purified protein (soybean (Glycine max))
Assay: ITC

Avr1d, purified protein (ITC and gel filtration) (natural protein)
Kd: 89 nM
